Measured values from PMC9785301.

Biological target: AjFER-D129A/E132A mutant (Apostichopus japonicus)
Experiment: crystal structure; M3 at approx. 15 mg/mL in 25 mM Tris-HCl, pH 8.0, 150 mM NaCl; crystals from 0.05 M cadmium sulfate hydrate, 0.1 M HEPES, pH 7.5, 1.0 M sodium acetate trihydrate, 18 °C; assembly of subunits into the cage

stoichiometry N: 24
Substance: AjFER-D129A/E132A mutant
